# Measurements as given in patent US6783936.
# Biological target: one CLL cell line
# Assay: avidity constant derived from LD50 of complement dependent cytotoxicity on CLL cells
substance,measurement,value
Lym-1 antibody,avidity,1.1e+08
